How the values were obtained:
HeLa Kyoto [1] = assay: solubility in G1/S (NP-40 vs SDS abundance) (log2 ratio); higher = more soluble; conditions: cell cycle stage: G1/S
HeLa Kyoto [2] = assay: melting temperature (median over replicates), in situ; higher = more thermally stable
HeLa Kyoto [3] = assay: solubility change mitosis vs G1/S (difference of NP-40 vs SDS log2 ratios) (log2 ratio difference); higher = more soluble in mitosis
HeLa Kyoto [4] = assay: thermal stability score vs G1/S (z-score of summed log2 fold changes over temperatures); higher = more thermally stable than in G1/S
[5] = cell cycle stage: early G1 (4.5 h after nocodazole release)
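For melting temperature (median over replicates), in situ in this document: HeLa Kyoto cells synchronized by double thymidine or nocodazole block, proteins quantified by TMT10plex mass spectrometry, three independent biological replicates.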
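For solubility change mitosis vs G1/S (difference of NP-40 vs SDS log2 ratios) in this document: synchronized HeLa Kyoto cells (double thymidine block for G1/S, nocodazole release for mitosis), protein amounts in NP-40 versus SDS lysates quantified by mass spectrometry, three biological replicates.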
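For solubility in G1/S (NP-40 vs SDS abundance) in this document: HeLa Kyoto cells arrested at G1/S by double thymidine block, proteins quantified by TMT10plex mass spectrometry in mild NP-40 versus SDS extracts, three biological replicates.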
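For thermal stability score vs G1/S (z-score of summed log2 fold changes over temperatures) in this document: synchronized HeLa Kyoto cells, proteins quantified by TMT10plex mass spectrometry, three biological replicates, mitosis taken 0.5 h after nocodazole release, G1/S directly after double thymidine block.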

| Sequence | solubility in G1/S (log2) (HeLa Kyoto [1]) | melting temperature (HeLa Kyoto [2]; cell cycle stage: G1/S) | melting temperature (HeLa Kyoto [2]; cell cycle stage: mitosis) | solubility change mitosis (log2) (HeLa Kyoto [3]) | thermal stability score (HeLa Kyoto [4]; [5]) | thermal stability score (HeLa Kyoto [4]; cell cycle stage: mitosis) |
| --- | --- | --- | --- | --- | --- | --- |
| MSGQRVDVKVVMLGKEYVGKTSLVERYVHDRFLVGPYQNTIGAAFVAKVMSVGDRTVTLGIWDTAGSERYEAMSRIYYRGAKAAIVCYDLTDSSSFERAKFWVKELRSLEEGCQIYLCGTKSDLLEEDRRRRRVDFHDVQDYADNIKAQLFETSSKTGQSVDELFQKVAEDYVSVAAFQVMTEDKGVDLGQKPNPYFYSCCHH [RAB24] | -0.101 | 53.8 °C | 54.2 °C | -0.172 | -0.25 | -0.316 |
| MRGPEPGPQPTMEGDVLDTLEALGYKGPLLEEQALTKAAEGGLSSPEFSELCIWLGSQIKSLCNLEESITSAGRDDLESFQLEISGFLKEMACPYSVLISGDIKDRLKKKEDCLKLLLFLSTELQASQILQNKKHKNSQLDKNSEVYQEVQAMFDTLGIPKSTTSDIPHMLNQVESKVKDILSKVQKNHVGKPLLKMDLNSEQAEQLERINDALSCEYECRRRMLMKRLDVTVQSFGWSDRAKVKTDDIARIYQPKRYALSPKTTITMAHLLAAREDLSKIIRTSSGTSREKTACAINKVLMGRVPDRGGRPNEIEPPPPEMPPWQKRQEGGGGRGGWGGGGGGGGRGGGGGGGGRGGWGGGGGGWGGGGGGGGGWGGGGGGGRGGFQGRGDYGGRGGYGGRGGYGGRGYGDPYGGGGGGGGGGGGGGGYRRY [FAM98B] | 0.558 | 50.3 °C | 51.5 °C | 0.0481 | -0.356 | 0.627 |
| MRECISIHVGQAGVQIGNACWELYCLEHGIQPDGQMPSDKTIGGGDDSFNTFFSETGAGKHVPRAVFVDLEPTVIDEVRTGTYRQLFHPEQLITGKEDAANNYARGHYTIGKEIIDLVLDRIRKLADQCTGLQGFLVFHSFGGGTGSGFTSLLMERLSVDYGKKSKLEFSIYPAPQVSTAVVEPYNSILTTHTTLEHSDCAFMVDNEAIYDICRRNLDIERPTYTNLNRLISQIVSSITASLRFDGALNVDLTEFQTNLVPYPRIHFPLATYAPVISAEKAYHEQLTVAEITNACFEPANQMVKCDPRHGKYMACCLLYRGDVVPKDVNAAIATIKTKRTIQFVDWCPTGFKVGINYQPPTVVPGGDLAKVQRAVCMLSNTTAVAEAWARLDHKFDLMYAKRAFVHWYVGEGMEEGEFSEAREDMAALEKDYEEVGADSADGEDEGEEY [TUBA1C] | 0.171 | 55.2 °C | 54.6 °C | -0.2 | 0.287 | -2.74 |
| MARELRALLLWGRRLRPLLRAPALAAVPGGKPILCPRRTTAQLGPRRNPAWSLQAGRLFSTQTAEDKEEPLHSIISSTESVQGSTSKHEFQAETKKLLDIVARSLYSEKEVFIRELISNASDALEKLRHKLVSDGQALPEMEIHLQTNAEKGTITIQDTGIGMTQEELVSNLGTIARSGSKAFLDALQNQAEASSKIIGQFGVGFYSAFMVADRVEVYSRSAAPGSLGYQWLSDGSGVFEIAEASGVRTGTKIIIHLKSDCKEFSSEARVRDVVTKYSNFVSFPLYLNGRRMNTLQAIWMMDPKDVREWQHEEFYRYVAQAHDKPRYTLHYKTDAPLNIRSIFYVPDMKPSMFDVSRELGSSVALYSRKVLIQTKATDILPKWLRFIRGVVDSEDIPLNLSRELLQESALIRKLRDVLQQRLIKFFIDQSKKDAEKYAKFFEDYGLFMREGIVTATEQEVKEDIAKLLRYESSALPSGQLTSLSEYASRMRAGTRNIYYLCAPNRHLAEHSPYYEAMKKKDTEVLFCFEQFDELTLLHLREFDKKKLISVETDIVVDHYKEEKFEDRSPAAECLSEKETEELMAWMRNVLGSRVTNVKVTLRLDTHPAMVTVLEMGAARHFLRMQQLAKTQEERAQLLQPTLEINPRHALIKKLNQLRASEPGLAQLLVDQIYENAMIAAGLVDDPRAMVGRLNELLVKALERH [TRAP1] | -0.0668 | 52.8 °C | 52.7 °C | -0.149 | 1.66 | -0.668 |
| MDLMNGQASSVNIAATASEKSSSSESLSDKGSELKKSFDAVVFDVLKVTPEEYAGQITLMDVPVFKAIQPDELSSCGWNKKEKYSSAPNAVAFTRRFNHVSFWVVREILHAQTLKIRAEVLSHYIKTAKKLYELNNLHALMAVVSGLQSAPIFRLTKTWALLSRKDKTTFEKLEYVMSKEDNYKRLRDYISSLKMTPCIPYLGIYLSDLTYIDSAYPSTGSILENEQRSNLMNNILRIISDLQQSCEYDIPMLPHVQKYLNSVQYIEELQKFVEDDNYKLSLKIEPGTSTPRSAASREDLVGPEVGASPQSGRKSVAAEGALLPQTPPSPRNLIPHGHRKCHSLGYNFIHKMNTAEFKSATFPNAGPRHLLDDSVMEPHAPSRGQAESSTLSSGISIGSSDGSELSEETSWPAFERNRLYHSLGPVTRVARNGYRSHMKASSSAESEDLAVHLYPGAVTIQGVLRRKTLLKEGKKPTVASWTKYWAALCGTQLFYYAAKSLKATERKHFKSTSNKNVSVIGWMVMMADDPEHPDLFLLTDSEKGNSYKFQAGNRMNAMLWFKHLSAACQSNKQQVPTNLMTFE [RALGPS2] | 0.0658 | 51 °C | 50.5 °C | -0.165 | -0.455 | -0.819 |
| MNTEAEQQLLHHARNGNAEEVRQLLETMARNEVIADINCKGRSKSNLGWTPLHLACYFGHRQVVQDLLKAGAEVNVLNDMGDTPLHRAAFTGRKELVMLLLEYNADTTIVNGSGQTAKEVTHAEEIRSMLEAVERTQQRKLEELLLAAAREGKTTELTALLNRPNPPDVNCSDQLGNTPLHCAAYRAHKQCALKLLRSGADPNLKNKNDQKPLDLAQGAEMKHILVGNKVIYKALKRYEGPLWKSSRFFGWRLFWVVLEHGVLSWYRKQPDAVHNIYRQGCKHLTQAVCTVKSTDSCLFFIKCFDDTIHGFRVPKNSLQQSREDWLEAIEEHSAYSTHYCSQDQLTDEEEEDTVSAADLKKSLEKAQSCQQRLDREISNFLKMIKECDMAKEMLPSFLQKVEVVSEASRETCVALTDCLNLFTKQEGVRNFKLEQEQEKNKILSEALETLATEHHELEQSLVKGSPPASILSEDEFYDALSDSESERSLSRLEAVTARSFEEEGEHLGSRKHRMSEEKDCGGGDALSNGIKKHRTSLPSPMFSRNDFSIWSILRKCIGMELSKITMPVIFNEPLSFLQRLTEYMEHTYLIHKASSLSDPVERMQCVAAFAVSAVASQWERTGKPFNPLLGETYELVRDDLGFRLISEQVSHHPPISAFHAEGLNNDFIFHGSIYPKLKFWGKSVEAEPKGTITLELLEHNEAYTWTNPTCCVHNIIVGKLWIEQYGNVEIINHKTGDKCVLNFKPCGLFGKELHKVEGYIQDKSKKKLCALYGKWTECLYSVDPATFDAYKKNDKKNTEEKKNSKQMSTSEELDEMPVPDSESVFIIPGSVLLWRIAPRPPNSAQMYNFTSFAMVLNEVDKDMESVIPKTDCRLRPDIRAMENGEIDQASEEKKRLEEKQRAARKNRSKSEEDWKTRWFHQGPNPYNGAQDWIYSGSYWDRNYFNLPDIY [OSBPL1A] | 0.0257 | 51 °C | 51 °C | -0.0641 | -0.0179 | -0.158 |
| MFWKFDLHSSSHIDTLLEREDVTLKELMDEEDVLQECKAQNRKLIEFLLKAECLEDLVSFIIEEPPQDMDEKIRYKYPNISCELLTSDVSQMNDRLGEDESLLMKLYSFLLNDSPLNPLLASFFSKVLSILISRKPEQIVDFLKKKHDFVDLIIKHIGTSAIMDLLLRLLTCIEPPQPRQDVLNWLNEEKIIQRLVEIVHPSQEEDRHSNASQSLCEIVRLSRDQMLQIQNSTEPDPLLATLEKQEIIEQLLSNIFHKEKNESAIVSAIQILLTLLETRRPTFEGHIEICPPGMSHSACSVNKSVLEAIRGRLGSFHELLLEPPKKSVMKTTWGVLDPPVGNTRLNVIRLISSLLQTNTSSINGDLMELNSIGVILNMFFKYTWNNFLHTQVEICIALILASPFENTENATITDQDSTGDNLLLKHLFQKCQLIERILEAWEMNEKKQAEGGRRHGYMGHLTRIANCIVHSTDKGPNSALVQQLIKDLPDEVRERWETFCTSSLGETNKRNTVDLVTTCHIHSSSDDEIDFKETGFSQDSSLQQAFSDYQMQQMTSNFIDQFGFNDEKFADQDDIGNVSFDRVSDINFTLNTNESGNIALFEACCKERIQQFDDGGSDEEDIWEEKHIAFTPESQRRSSSGSTDSEESTDSEEEDGAKQDLFEPSSANTEDKMEVDLSEPPNWSANFDVPMETTHGAPLDSVGSDVWSTEEPMPTKETGWASFSEFTSSLSTKDSLRSNSPVEMETSTEPMDPLTPSAAALAVQPEAAGSVAMEASSDGEEDAESTDKVTETVMNGGMKETLSLTVDAKTETAVFKSEEGKLSTSQDAACKDAEECPETAEAKCAAPRPPSSSPEQRTGQPSAPGDTSVNGPV [PPP6R3] | -0.236 | 54.9 °C | 54.1 °C | -0.12 | -1.86 | -1.84 |
| MAFLRSMWGVLSALGRSGAELCTGCGSRLRSPFSFVYLPRWFSSVLASCPKKPVSSYLRFSKEQLPIFKAQNPDAKTTELIRRIAQRWRELPDSKKKIYQDAYRAEWQVYKEEISRFKEQLTPSQIMSLEKEIMDKHLKRKAMTKKKELTLLGKPKRPRSAYNVYVAERFQEAKGDSPQEKLKTVKENWKNLSDSEKELYIQHAKEDETRYHNEMKSWEEQMIEVGRKDLLRRTIKKQRKYGAEEC [TFAM] | 0.578 | 53.1 °C | 53 °C | 0.546 | -1.96 | -1.16 |
| MNIDDKLEGLFLKCGGIDEMQSSRTMVVMGGVSGQSTVSGELQDSVLQDRSMPHQEILAADEVLQESEMRQQDMISHDELMVHEETVKNDEEQMETHERLPQGLQYALNVPISVKQEITFTDVSEQLMRDKKQIREPVDLQKKKKRKQRSPAKILTINEDGSLGLKTPKSHVCEHCNAAFRTNYHLQRHVFIHTGEKPFQCSQCDMRFIQKYLLQRHEKIHTGEKPFRCDECGMRFIQKYHMERHKRTHSGEKPYQCEYCLQYFSRTDRVLKHKRMCHENHDKKLNRCAIKGGLLTSEEDSGFSTSPKDNSLPKKKRQKTEKKSSGMDKESALDKSDLKKDKNDYLPLYSSSTKVKDEYMVAEYAVEMPHSSVGGSHLEDASGEIHPPKLVLKKINSKRSLKQPLEQNQTISPLSTYEESKVSKYAFELVDKQALLDSEGNADIDQVDNLQEGPSKPVHSSTNYDDAMQFLKKKRYLQAASNNSREYALNVGTIASQPSVTQAAVASVIDESTTASILESQALNVEIKSNHDKNVIPDEVLQTLLDHYSHKANGQHEISFSVADTEVTSSISINSSEVPEVTPSENVGSSSQASSSDKANMLQEYSKFLQQALDRTSQNDAYLNSPSLNFVTDNQTLPNQPAFSSIDKQVYATMPINSFRSGMNSPLRTTPDKSHFGLIVGDSQHSFPFSGDETNHASATSTQDFLDQVTSQKKAEAQPVHQAYQMSSFEQPFRAPYHGSRAGIATQFSTANGQVNLRGPGTSAEFSEFPLVNVNDNRAGMTSSPDATTGQTFG [ZNF148] | -0.236 | 51.6 °C | 51.1 °C | 0.123 | 1.13 | -1.33 |
| MRPRKAFLLLLLLGLVQLLAVAGAEGPDEDSSNRENAIEDEEEEEEEDDDEEEDDLEVKEENGVLVLNDANFDNFVADKDTVLLEFYAPWCGHCKQFAPEYEKIANILKDKDPPIPVAKIDATSASVLASRFDVSGYPTIKILKKGQAVDYEGSRTQEEIVAKVREVSQPDWTPPPEVTLVLTKENFDEVVNDADIILVEFYAPWCGHCKKLAPEYEKAAKELSKRSPPIPLAKVDATAETDLAKRFDVSGYPTLKIFRKGRPYDYNGPREKYGIVDYMIEQSGPPSKEILTLKQVQEFLKDGDDVIIIGVFKGESDPAYQQYQDAANNLREDYKFHHTFSTEIAKFLKVSQGQLVVMQPEKFQSKYEPRSHMMDVQGSTQDSAIKDFVLKYALPLVGHRKVSNDAKRYTRRPLVVVYYSVDFSFDYRAATQFWRSKVLEVAKDFPEYTFAIADEEDYAGEVKDLGLSESGEDVNAAILDESGKKFAMEPEEFDSDTLREFVTAFKKGKLKPVIKSQPVPKNNKGPVKVVVGKTFDSIVMDPKKDVLIEFYAPWCGHCKQLEPVYNSLAKKYKGQKGLVIAKMDATANDVPSDRYKVEGFPTIYFAPSGDKKNPVKFEGGDRDLEHLSKFIEEHATKLSRTKEEL [PDIA4] | 0.264 | 53.9 °C | 54.4 °C | -0.0655 | 3.99 | 4.66 |

Reference: the supplement of paper PMC5998384
